Source: patent US11110182B2, “Multifunctional RNA nanoparticles and methods for treating cancer and therapeutic resistant cancer” (University of Cincinnati, priority 2016, dated 2021)

Assays:
recombinant Dicer enzyme = molecular target: T1, recombinant Dicer enzyme (Homo sapiens, UniProt Q9UPY3); assay: Digestion with recombinant Dicer enzyme, siRNA release; format: biochemical; details: 1 μg pRNA nanoparticles, 37° C., 12 h
T1 construct: purchased Genlantis
Protocol: FIG. 7A) Six HER2-targeting RNA aptamers were selected from previous literatures, and their secondary structures were predicted using Srna-fold software. FIG. 7B) Six p2 strands containing the six different HER2 RNA aptamers were synthesized and annealed with the same p1 strand to generate six different pRNA-HER2apt-MED1 siRNA nanoparticles, respectively, followed by examination using 8% native PAGE gel electrophoresis. FIG. 7C) BT474 cells were treated with above pRNA nanoparticles for 48 h, and then MED1 protein level was determined by western blotting. […] FIG. 7D) 1 μg pRNA nanoparticles were incubated with recombinant Dicer enzyme (Genlantis) at 37° C. for 12 h, the product was separated by 8% native PAGE gel.
Next, the pRNA nanoparticles were digested with recombinant Dicer enzyme (Genlantis) ^34 to confirm the release of siRNAs as indicated by the generation of 21-23 bp small RNAs after digestion (FIG. 7D).

[1] = system: ERα target genes TFF-1, c-Myc, cyclin D1 and MMP-9; assay: Gene expression in xenograft tumor tissues by real-time PCR; format: in vivo, athymic nude mice
From the text: FIG. 6A) Whole lung tissues were fixed, embedded, and sectioned for H&E staining, and FIG. 6B) metastasis foci in the whole lung tissues were then counted. Arrow indicates the metastasis foci. Scale bar: 100 μm. FIG. 6C) After digesting tumor tissues with trypsin and 0.1% collagenase, tumor cells were stained for CD44 and CD24, and FIG. 6D) analyzed for CD44^+CD24^−/low stem cell population using flow cytometry. FIG. 6E) Total RNA in the tumor tissues was extracted using TRIZOL reagent, and the expression of TFF-1, FIG. 6F) c-Myc, FIG. 6G) cyclin D1, and FIG. 6H) MMP-9 were determined by real-time PCR.
Cell culture. Human breast cancer luciferase-overexpressing BT474 and MDA-MB-231 cells were maintained in DMEM medium (Hyclone, Thermo Scientific) supplemented with 10% fetal bovine serum (FBS, Sigma) and 1% penicillin/streptomycin (Corning) at 37° C. in a humidified atmosphere with 5% CO2.^53 • Generation of pRNA nanoparticles. The two strands of pRNA were synthesized with the DNA templates, which were amplified with overlapping primers (Sigma) by PCR methods, using a T7 promoter-controlled in vitro RNA transcription system as previously described^33 (Table 1). All the CTP and UTP used for synthesis of the pRNA nanoparticles were 2′-fluoro modified, except the control unmodified pRNA nanoparticles used in the stability assays. Following an overnight transcription at 37° C., RNA strands were purified using RNA clean and concentrator kits (ZYMO research) and examined by 8 M urea denatured 8% PAGE gel. pRNA nanoparticles were assembled by mixing the equal molar amounts of p1 and p2 strands and gradually annealing from 90° C. to 20° C. in 1×RNA annealing buffer containing 50 mM Tris-HCl (pH 7.5), 50 mM NaCl and 1 mM EDTA on a PCR machine. The generated pRNA nanoparticles were examined by 8% native PAGE gels as previously described.^33 To generate AF647-conjugated pRNA nanoparticles, a 5′-termial AF647-conjugated RNA strand was synthesized (TriLink) for annealing. • Characterization of pRNA nanoparticles. The hydrodynamic diameter and Tm value of pRNA nanoparticles were determined using dynamic light scattering and TGGE assay, respectively, as previously described.^54 The AFM imaging of the pRNA nanoparticles was performed at the University of Nebraska Medical Center imaging facility as previously reported.^55 Briefly, the pRNA nanoparticles (5 μL) were deposited on APS modified mica ^56 for a total of 2 min of incubation time. Excess samples were washed with DI water and dried under a flow of Argon gas. AFM images in air were acquired using MultiMode AFM NanoScope IV system (Bruker Instruments) operating in tapping mode with 1.5 Hz scanning rate. TESPA probes from Bruker were used for tapping mode imaging. […] For stability analyses, the pRNA nanoparticles were treated with RNase A, 8 M urea, or 10% FBS supplemented DMEM medium at 37° C., respectively. The integrity of the pRNA nanoparticles was examined through native PAGE gel electrophoresis. • pRNA nanoparticle cellular uptake assay. BT474 and MDA-MB-231 cells were seeded into 4-well Lab-Tek chamber slides (Nalge Nunc international, Thermo scientific) and incubated with 10 μg/mL AF647-conjugated pRNAs at 4° C. for 30 min. After washing with PBS for three times, cells were incubated at 37° C. for another hour. Cells were then fixed with 4% formaldehyde, permeated with 0.25% Trinton X-100, and stained with FITC-conjugated β-actin antibody (Sigma) and DAPI (Sigma). pRNA nanoparticle uptake was examined using a laser scanning confocal microscope (Zeiss). For flow cytometry analyses, BT474 cells were incubated with AF647-labeled pRNA nanoparticles at 37° C. for 3 h. After washing three times with PBS, the cellular uptake of pRNAs was determined using a BD LSRFortessa™ flow cytometer. • Real-time PCR. […]

T1 sequence (Q9UPY3 whole entry): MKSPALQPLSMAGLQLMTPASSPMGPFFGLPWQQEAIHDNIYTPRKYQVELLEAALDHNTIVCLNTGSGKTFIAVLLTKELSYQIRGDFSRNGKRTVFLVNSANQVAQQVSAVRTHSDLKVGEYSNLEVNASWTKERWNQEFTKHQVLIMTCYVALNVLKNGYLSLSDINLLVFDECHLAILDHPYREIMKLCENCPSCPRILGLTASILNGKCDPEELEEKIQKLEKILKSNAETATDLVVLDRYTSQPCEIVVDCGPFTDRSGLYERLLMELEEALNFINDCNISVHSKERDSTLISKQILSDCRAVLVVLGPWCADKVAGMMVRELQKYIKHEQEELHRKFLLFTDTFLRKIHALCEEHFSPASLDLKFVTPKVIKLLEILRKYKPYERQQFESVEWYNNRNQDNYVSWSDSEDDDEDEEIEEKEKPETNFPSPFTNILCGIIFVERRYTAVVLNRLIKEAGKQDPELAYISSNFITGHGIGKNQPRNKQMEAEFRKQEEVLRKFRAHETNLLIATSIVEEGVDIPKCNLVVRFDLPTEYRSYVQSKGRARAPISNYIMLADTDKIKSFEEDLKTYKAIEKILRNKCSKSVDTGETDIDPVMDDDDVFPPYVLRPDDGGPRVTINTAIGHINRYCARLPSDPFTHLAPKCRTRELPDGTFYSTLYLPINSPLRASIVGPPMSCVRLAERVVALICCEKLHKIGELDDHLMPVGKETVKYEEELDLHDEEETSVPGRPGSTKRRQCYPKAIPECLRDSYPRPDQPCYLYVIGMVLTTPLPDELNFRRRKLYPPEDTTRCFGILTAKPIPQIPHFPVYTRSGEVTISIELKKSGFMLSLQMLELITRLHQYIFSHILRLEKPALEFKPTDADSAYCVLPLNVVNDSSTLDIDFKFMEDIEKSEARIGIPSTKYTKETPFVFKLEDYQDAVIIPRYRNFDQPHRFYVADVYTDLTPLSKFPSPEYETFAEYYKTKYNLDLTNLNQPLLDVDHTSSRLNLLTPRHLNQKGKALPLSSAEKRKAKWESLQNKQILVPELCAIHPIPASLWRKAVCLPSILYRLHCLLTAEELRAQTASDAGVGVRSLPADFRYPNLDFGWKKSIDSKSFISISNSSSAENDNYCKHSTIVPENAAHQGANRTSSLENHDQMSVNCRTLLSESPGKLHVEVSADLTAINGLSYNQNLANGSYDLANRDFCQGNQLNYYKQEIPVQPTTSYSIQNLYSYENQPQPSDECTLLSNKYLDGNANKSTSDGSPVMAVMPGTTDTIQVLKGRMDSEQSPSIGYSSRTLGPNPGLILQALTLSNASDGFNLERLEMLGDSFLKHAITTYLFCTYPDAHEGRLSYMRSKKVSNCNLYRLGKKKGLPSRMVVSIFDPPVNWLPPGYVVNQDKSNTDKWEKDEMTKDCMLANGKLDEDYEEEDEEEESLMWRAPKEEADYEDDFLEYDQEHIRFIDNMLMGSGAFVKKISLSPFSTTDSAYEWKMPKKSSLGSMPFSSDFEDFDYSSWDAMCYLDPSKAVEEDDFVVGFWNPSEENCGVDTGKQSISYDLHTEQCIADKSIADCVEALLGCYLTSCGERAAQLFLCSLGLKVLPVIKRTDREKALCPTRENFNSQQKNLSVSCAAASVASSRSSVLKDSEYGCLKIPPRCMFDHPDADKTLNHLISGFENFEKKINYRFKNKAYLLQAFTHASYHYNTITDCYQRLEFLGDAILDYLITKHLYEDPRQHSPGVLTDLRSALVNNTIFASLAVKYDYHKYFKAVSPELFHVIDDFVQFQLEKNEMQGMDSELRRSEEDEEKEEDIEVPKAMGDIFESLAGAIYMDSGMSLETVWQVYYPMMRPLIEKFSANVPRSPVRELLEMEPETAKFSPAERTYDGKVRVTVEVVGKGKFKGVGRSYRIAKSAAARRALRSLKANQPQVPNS

B1: pRNA-HER2apt-siMED1: 3-WJ pRNA nanoparticle bearing a HER2-targeting RNA aptamer and two different MED1 siRNAs; strands p1 SEQ ID NO: 3, p2 SEQ ID NO: 4 (nucleic acid)
chain 1: GGACAGUGAAAGUGAGUCAAAGGAUCAAUCAUGGCCAAAGAUGUUACUUUGAGAGCCUU
chain 2: GGCUCUCAAAGUAACAUCUAAGGCCAUGUGUAUGUGGGGGGAGGACGAUGCGGUCUGCUGUGCUUGAUAUGCCCCAGACGACUCGCCCCCCACAUACUUUGUUGAUCCAAUGACUCACUUUCACUGUCCUU
modifications: 2'-F modification; third strand may lack entry; pRNA-HER2apt-siMED1, p1; pRNA-HER2apt-siMED1, p2
- small RNAs generated after Dicer digestion (release of siRNAs) (recombinant Dicer enzyme): 21-23 bp
- MMP-9 expression in tumor tissues ([1]; combined with tamoxifen): further inhibited
- TFF-1 expression in tumor tissues ([1]; combined with tamoxifen): further inhibited
- c-Myc expression in tumor tissues ([1]; combined with tamoxifen): further inhibited
- cyclin D1 expression in tumor tissues ([1]; combined with tamoxifen): further inhibited
- MMP-9 expression in tumor tissues ([1]; pRNA treatment): significantly down-regulated
- TFF-1 expression in tumor tissues ([1]; pRNA treatment): significantly down-regulated
- c-Myc expression in tumor tissues ([1]; pRNA treatment): significantly down-regulated
- cyclin D1 expression in tumor tissues ([1]; pRNA treatment): significantly down-regulated
